Assay results reported in patent US20020090651A1.

Molecular target: Xenopus FGF receptor-1 (Xenopus laevis) (UniProt P22182)
Assay: cell-based or functional assay

Chain of UniProt P22182 (P22182 21-812): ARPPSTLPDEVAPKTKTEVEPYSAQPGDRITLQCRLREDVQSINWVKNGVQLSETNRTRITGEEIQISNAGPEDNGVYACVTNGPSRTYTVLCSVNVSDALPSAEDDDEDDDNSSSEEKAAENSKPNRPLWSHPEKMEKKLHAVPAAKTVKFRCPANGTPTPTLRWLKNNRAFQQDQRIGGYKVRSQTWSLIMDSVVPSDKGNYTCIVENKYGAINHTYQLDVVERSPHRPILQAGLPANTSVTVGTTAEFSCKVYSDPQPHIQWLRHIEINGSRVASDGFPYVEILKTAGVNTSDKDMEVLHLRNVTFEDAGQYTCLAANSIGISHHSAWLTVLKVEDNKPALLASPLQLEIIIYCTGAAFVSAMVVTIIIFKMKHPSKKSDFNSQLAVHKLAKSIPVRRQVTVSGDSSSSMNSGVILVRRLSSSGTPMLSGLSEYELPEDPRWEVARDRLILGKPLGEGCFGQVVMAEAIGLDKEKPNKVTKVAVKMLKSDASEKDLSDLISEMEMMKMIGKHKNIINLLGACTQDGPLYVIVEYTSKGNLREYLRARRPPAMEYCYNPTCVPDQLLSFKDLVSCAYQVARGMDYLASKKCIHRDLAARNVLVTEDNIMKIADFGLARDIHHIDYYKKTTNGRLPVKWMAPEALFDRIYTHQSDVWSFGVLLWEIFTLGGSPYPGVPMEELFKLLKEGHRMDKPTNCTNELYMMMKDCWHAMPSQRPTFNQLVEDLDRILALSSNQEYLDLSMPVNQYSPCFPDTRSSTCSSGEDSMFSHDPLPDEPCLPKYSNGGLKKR

Ca2+ release (efflux) of Xenopus oocytes co-injected with ligand and FGF receptor mRNAs	Substance
2 fold	FRL-2 protein (ligand)
3 fold	Xenopus bFGF (basic fibroblast growth factor), without a signal sequence (from UniProt P12226 1-155) (ligand)
